Target: MMP9 full length (UniProt P14780 20-707)
Assay: fluorescence polarization

Chain of MMP9 full length (P14780 20-707): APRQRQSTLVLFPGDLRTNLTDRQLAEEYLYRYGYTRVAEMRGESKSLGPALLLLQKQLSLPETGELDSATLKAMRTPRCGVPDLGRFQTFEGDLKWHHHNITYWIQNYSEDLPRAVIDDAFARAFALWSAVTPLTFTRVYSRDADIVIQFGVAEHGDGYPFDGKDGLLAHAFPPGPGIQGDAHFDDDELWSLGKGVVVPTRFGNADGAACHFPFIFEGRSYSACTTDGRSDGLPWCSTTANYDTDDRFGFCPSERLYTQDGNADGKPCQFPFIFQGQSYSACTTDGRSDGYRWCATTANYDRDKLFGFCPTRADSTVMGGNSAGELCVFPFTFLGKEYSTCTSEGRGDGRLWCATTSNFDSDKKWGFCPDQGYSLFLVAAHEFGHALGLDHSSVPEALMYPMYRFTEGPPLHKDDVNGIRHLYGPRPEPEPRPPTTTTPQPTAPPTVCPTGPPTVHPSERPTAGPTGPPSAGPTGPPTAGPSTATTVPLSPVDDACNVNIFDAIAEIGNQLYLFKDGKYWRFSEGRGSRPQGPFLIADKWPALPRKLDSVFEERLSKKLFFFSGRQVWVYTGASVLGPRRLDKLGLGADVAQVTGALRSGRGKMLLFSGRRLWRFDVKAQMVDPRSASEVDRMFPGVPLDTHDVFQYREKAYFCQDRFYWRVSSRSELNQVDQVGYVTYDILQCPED

ACGCCAATAACGCTATTCGAGCTCGAGACGGCGCGATCTC (ssDNA) [Scrambled 40-mer]
binding result: binds

From article PMC5941315
